Data from the supplement of paper PMC10126150.
± gives the standard deviation of the averaged measurements.

Tested on: ATP
Assay: switch fluorescence ratio, 500 uM ATP over buffer (Cy3 cluster intensity, sum of 5 cycles each) (fold (ratio)); higher = stronger signal-on switching upon ATP binding; sequences stand for … in TCGTCGGCAGCGTCAGATGTGTATAAGAGACAGTTTTTTTTTTTTTTTTTTTTTTTTT…TC
Settings: aptamer strand: ATP DNA aptamer (quencher-CACCTGGGGGAGTATTGCGGAGGAAGG + anchor), 100 nM annealed; ATP concentration: 500 uM
Outline: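 Clusters with intensities outside 100-1000 RFU were excluded. The remaining Cy3-labelled switching-strand clusters on a modified Illumina MiSeq flow-cell had been annealed to 100 nM quencher-labelled ATP aptamer and imaged in selection buffer, then after 15 min with 500 uM ATP at 22 °C, for five cycles separated by NaOH stripping and re-annealing. The fluorescence ratio, averaged per switch-domain sequence, is each cluster's summed target-cycle Cy3 intensity over its summed buffer-cycle Cy3 intensity.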
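Note: ATP exposure 15 min at 22 °C before imaging.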

| Sequence | switch fluorescence ratio |
| --- | --- |
| GCGAGTCTCG | 1.03 ± 0.044 |
| TTAAAAAAGT | 1.01 ± 0.02 |
| AACTGCTATC | 1.22 ± 0.036 |
| GGGGAGGCCA | 0.963 ± 0.031 |
| GCGTTTTAGC | 0.995 ± 0.041 |
| CAGTCGGGCT | 0.974 ± 0.02 |
| ATATATATAT | 1.01 ± 0.012 |
| AACGGCTA | 1.047 ± 0.0045 |
| ATTTTAGT | 1.01 ± 0.038 |
| TCAGTTCGGC | 0.976 ± 0.037 |
| CAGGGCAAGC | 1.36 ± 0.057 |
| CAGAGTAGGT | 1.02 ± 0.048 |
| ATATCGTTCG | 1.02 ± 0.054 |
| GGGGGAGTTT | 1.01 ± 0.011 |
| GGTGGGGTGA | 0.9856 ± 0.0078 |
| ATGAAAATGG | 0.971 ± 0.019 |
| GGAGGGTTGG | 0.998 ± 0.059 |
| ACAGGTTTGA | 1.03 ± 0.021 |
| GCTGGCGGAT | 1.01 ± 0.041 |
| CTATTGTTTT | 1.03 ± 0.079 |
| TAGTTGCTTG | 1.03 ± 0.054 |
| CGTAAAAAT | 1.01 ± 0.027 |
| GCAGTCTGGG | 0.991 ± 0.01 |

| Sequence | switch fluorescence ratio |
| --- | --- |
| GCCAGGGAAA | 0.9958 ± 0.0046 |
| CGTTGGGATC | 0.99281 ± 0.00021 |
| ATTTGGCTGT | 0.997 ± 0.023 |
| AGCGGGTTGG | 1.029 ± 0.0082 |
| TTCCTGTGAT | 1.22 ± 0.27 |
| TAGGTCCTTT | 1.02 ± 0.02 |
| GATTCCGTCC | 1.177 ± 0.0046 |
| TGACACATGA | 1.02 ± 0.013 |
| GGCCACGTAG | 1.02 ± 0.022 |
| GACTTTGTAC | 1.06 ± 0.014 |
| GGTGACTATT | 0.979 ± 0.037 |
| AGGGGTAGTA | 1.03 ± 0.04 |
| CGGGGGACCG | 1 ± 0.02 |
| ATACGAACGG | 1.48 ± 0.015 |
| AGTAGGTAAT | 0.9902 ± 0.0071 |
| AGAATCCGGG | 0.97 ± 0.041 |
| ACCTGCAATT | 2.96 ± 0.044 |
| TTTTTAGACT | 1 ± 0.038 |
| GCAGTGGGTT | 1.02 ± 0.074 |
| TGGTAGGAGG | 1.002 ± 0.0056 |
| AAGTTTGAAT | 0.978 ± 0.013 |
| AAGGTCTGTG | 0.993 ± 0.014 |
| ATTTATGGGT | 0.987 ± 0.029 |

| Sequence | switch fluorescence ratio |
| --- | --- |
| ATTATAGCGG | 0.9984 ± 0.0073 |
| GGAACGGGTG | 1.09 ± 0.17 |
| ATGGGTCTTT | 0.9811 ± 0.0016 |
| AGTGAGTCCG | 0.996 ± 0.01 |
| GGCGTATTGG | 0.988 ± 0.027 |
| TTTCAGGGCT | 1.22 ± 0.16 |
| GACAGCGCTA | 1.01 ± 0.042 |
| TAGGGCCTTT | 0.986 ± 0.023 |
| TATATACGTT | 1.04 ± 0.026 |
| TCTAAAAAAG | 0.991 ± 0.028 |
| TTCGGGTGGC | 1.02 ± 0.051 |
| AGTTACCTCT | 1.03 ± 0.013 |
| GTTTGAGACG | 0.903 ± 0.044 |
| TGGGTATTAC | 1.14 ± 0.26 |
| TGTGGTAAGG | 0.98472 ± 0.0006 |
| TTGGAGAAGG | 0.998 ± 0.018 |
| TTTTGTCGTT | 1.03 ± 0.095 |
| GGTCTAGGTG | 1.2586 ± 0.00091 |
| CTAAACCTGG | 1.13 ± 0.034 |
| TAATCGCATA | 2.05 ± 1.2 |
| CCGGTTAAAC | 1.64 ± 0.06 |
| TTCCTGGCCT | 1.02 ± 0.033 |
| GGTTCGGGGA | 0.98 ± 0.019 |

| Sequence | switch fluorescence ratio |
| --- | --- |
| CTTTATATAC | 1.35 ± 0.025 |
| TGGGCAGGAT | 1.01 ± 0.041 |
| TTGGGGTTGG | 1.01 ± 0.03 |
| TTAAAACTTT | 1.02 ± 0.025 |
| AAAGGTTGGT | 1.011 ± 0.0037 |
| GAGGGGGGTT | 1 ± 0.027 |
| GGGTGGGTAT | 1 ± 0.027 |
| GGGAAATTTT | 0.987 ± 0.021 |
| CAAGGACGAT | 1.004 ± 0.0015 |
| GTTCGGCGAT | 1.03 ± 0.013 |
| ACTGAGGAT | 0.9994 ± 0.003 |
| TTCAGTAGAT | 0.951 ± 0.032 |
| TTAATTATTT | 0.998 ± 0.029 |
| TGCAAGGTTA | 1.02 ± 0.051 |
| ATGTAGGCCA | 1.04 ± 0.053 |
| TATGTGGGGA | 1.02 ± 0.027 |
| TAAGTTTGGT | 0.985 ± 0.021 |
| GGGGTTGATG | 0.965 ± 0.022 |
| ATAGCAGGGG | 1.11 ± 0.082 |
| TAGGGATAG | 1.01 ± 0.015 |
| GGGTATCGTT | 0.965 ± 0.027 |
| GATTATGTTA | 0.9772 ± 0.007 |
| AAGGAGGTTT | 1.01 ± 0.031 |

| Sequence | switch fluorescence ratio |
| --- | --- |
| ACGGGTTTTG | 1.03 ± 0.024 |
| GGTCCCGGTG | 1.1 ± 0.013 |
| TTTTTCACG | 1 ± 0.04 |
| GAATAGGGGG | 1.013 ± 0.0094 |
| CCATCAGGG | 1.16 ± 0.042 |
| TAAATACGGT | 1.03 ± 0.062 |
| TAACATTTTT | 1 ± 0.022 |
| ATTTCTTTTG | 1.02 ± 0.056 |
| TGTAAGGGTT | 0.994 ± 0.027 |
| CCGGGTTACT | 1.91 ± 0.044 |
| GATGCAATCT | 1.44 ± 0.08 |
| AGGTTATAGT | 1.03 ± 0.051 |
| ACTATGTGTG | 0.99 ± 0.031 |
| GTTTGGTATG | 0.988 ± 0.017 |
| AACAGCTGTT | 0.972 ± 0.035 |
| CGAACTTGTT | 1.01 ± 0.04 |
| TCTGGGGCGG | 1.04 ± 0.074 |
| GCGTCTGGGG | 1.019 ± 0.0046 |
| AGGGGAGTAA | 0.996 ± 0.023 |
| TCGAGGGGTC | 1.06 ± 0.075 |
| ACGGGGAAAA | 1.03 ± 0.036 |
| GATCAATTGG | 1.02 ± 0.026 |
| CCGATTTGGC | 1.14 ± 0.044 |
